Results reported in the Human Domainome abundance scans (Beltran et al. 2025).
± gives the uncertainty stated by the source.

B1: PMS1 protein homolog 1, residues 572 to 637; numbered along this chain, P54277 (parent)
chain: KKPMSASALFVQDHRPQFLIENPKTSLEDATLQIEELWKTLSEEEKLKYEEKATKDLERYNSQMKR

Variants of: B1
Assay: abundance fitness (aPCA) (normalised: wild type 0, dead -1); higher = more abundant; growth selection in yeast, the domain comes from the species named
Conditions: Homo sapiens

Question: With KKPMSASALFVQDHRPQFLIENPKTSLEDATLQIEELWKTLSEEEKLKYEEKATKDLCRYNSQMKR [E58C] as the variant, how does the abundance fitness read?
Answer: -0.18 ± 0.13

Question: With KKPMSASALFVQDHRPQFLIENPKTSLEDATLQIEELWKTLSEEEKLKYEEKATKDLNRYNSQMKR [E58N] as the variant, how does the abundance fitness read?
Answer: -0.307 ± 0.12

Question: Which abundance fitness does the source give for KKPMSASALFVQDHRPQFLIENPKTSLEDATLQIEELWKTLSEEEKLKYEEKATKDLTRYNSQMKR [E58T] here?
Answer: -0.155 ± 0.065

Question: Which abundance fitness does the source give for KKPMSASALFVQDHRPQFLIENPKTSLEDATLQIEELWKTLSEEEKLKPEEKATKDLERYNSQMKR [Y49P] here?
Answer: -0.581 ± 0.13

Question: Which abundance fitness does the source give for KKPMSASALFVQDHRPQFLIENPKTSLEDATLQIEELWKTLSEEEKLKVEEKATKDLERYNSQMKR [Y49V] here?
Answer: -0.847 ± 0.083

Question: Which abundance fitness does the source give for KKPMSASALFVQDHRPQFLIENPKTSLEDATLQIEELWKTLSEEEKLKAEEKATKDLERYNSQMKR [Y49A] here?
Answer: -0.507 ± 0.1

Question: For KKPMSASALFVQDHRPQFLIENPKTSLEDATLQIEELWKTLSEEEKLKSEEKATKDLERYNSQMKR [Y49S], which abundance fitness is on record?
Answer: -0.676 ± 0.1

Question: For KKPMSASALFVQDHRPQFLIENPKTSLEDATLQIEELWKTLSEEEKLKKEEKATKDLERYNSQMKR [Y49K], which abundance fitness is on record?
Answer: -0.583 ± 0.13

Question: Which abundance fitness does the source give for KKPMSAGALFVQDHRPQFLIENPKTSLEDATLQIEELWKTLSEEEKLKYEEKATKDLERYNSQMKR [S7G] here?
Answer: -0.134 ± 0.083

Question: For SKPMSASALFVQDHRPQFLIENPKTSLEDATLQIEELWKTLSEEEKLKYEEKATKDLERYNSQMKR [K1S], which abundance fitness is on record?
Answer: -0.602 ± 0.2

Question: For KKPMSASALFVQDHRPQFLIENPKTSLEDATLQIEELWKTLSEEEKLKYEEKATKDLERYNSRMKR [Q63R], which abundance fitness is on record?
Answer: -0.178 ± 0.081

Question: Which abundance fitness does the source give for KKPMSASALFVQDHRPQFLIENPKTSLEDATLQIEELWKTLSEEEKLKYEEKATKDLERYNSMMKR [Q63M] here?
Answer: -0.109 ± 0.12

Question: Which abundance fitness does the source give for KKPMSASALFVQDHRPQFLIENPKTSLEDATLQIEELWKTLSEEEKLKYEEKATKDLERYNSKMKR [Q63K] here?
Answer: 0.02 ± 0.11

Question: With KKPMSASALFVQDHRPQFLIENPKTSLEDATLQIEELWKTLSEEEKLKYEEKATKDLERYNSTMKR [Q63T] as the variant, how does the abundance fitness read?
Answer: -0.072 ± 0.088

Question: For KKPMSASALFVQDHRPQFLIENPKTSLEDATLQIEELWKTLSEEEKLKYEEKATKDLERYNSQMKK [R66K], which abundance fitness is on record?
Answer: -0.152 ± 0.33

Question: Which abundance fitness does the source give for KKPMSASALFVQDHRPQFLIENPKTSLEDATLQIEELWKTLSEEEKLKYEEKATKDLERYNSQMKF [R66F] here?
Answer: 0.095 ± 0.17

Question: With KKPMSASALLVQDHRPQFLIENPKTSLEDATLQIEELWKTLSEEEKLKYEEKATKDLERYNSQMKR [F10L] as the variant, how does the abundance fitness read?
Answer: -0.731 ± 0.12

Question: For KKPMSASALFVQDHRPQFLIENPKTSLEDATLQIEELWKQLSEEEKLKYEEKATKDLERYNSQMKR [T40Q], which abundance fitness is on record?
Answer: -0.094 ± 0.095

Question: For KKPMSASALFVQDHRPQFLIENPKTSLEDATLQIEELWKALSEEEKLKYEEKATKDLERYNSQMKR [T40A], which abundance fitness is on record?
Answer: -0.294 ± 0.12

Question: For KKPMSASALFVQDHRPQFLIENPKTSLEDATLQIEELWKTLSEEQKLKYEEKATKDLERYNSQMKR [E45Q], which abundance fitness is on record?
Answer: -0.142 ± 0.11

Question: With KKPMSASALFVQDHRPQFLIENPKTSLEDATLQIEELWKTLSEEWKLKYEEKATKDLERYNSQMKR [E45W] as the variant, how does the abundance fitness read?
Answer: -0.78 ± 0.074

Question: Which abundance fitness does the source give for KKPMSSSALFVQDHRPQFLIENPKTSLEDATLQIEELWKTLSEEEKLKYEEKATKDLERYNSQMKR [A6S] here?
Answer: -0.195 ± 0.22

Question: Which abundance fitness does the source give for KKPMSASALFVQDHRPQFLIENPKTSLEDATLQIEELWKTLSEEEKLKYEEKATKDLERYNIQMKR [S62I] here?
Answer: -0.249 ± 0.14

Question: Which abundance fitness does the source give for KKPMSASALFVQDHRPQFLIENPKTSLEDATLQIEELWKTLSEEEKLKYEEKATKDLERYNKQMKR [S62K] here?
Answer: 0.049 ± 0.078

Question: For KKPMSASALFVQDHRPQFLIENPKTSLEDATLQIEELWKTLSEEEKLKYEEKATKDLERYNLQMKR [S62L], which abundance fitness is on record?
Answer: -0.071 ± 0.071

Question: With KKPMSASALFVQDHRPQFLIENPKTSLEDATLQIEELWKTLSEEEKLKYEEKATKDLERYNSQHKR [M64H] as the variant, how does the abundance fitness read?
Answer: 0.08 ± 0.16

Question: For KKPMSASALFVQDHRPQFLIENPKTSLEDATLQIEELWKTLSEEEKLKYEEKATKDLERYNSQAKR [M64A], which abundance fitness is on record?
Answer: -0.059 ± 0.09

Question: Which abundance fitness does the source give for KKPMSASALFVQDHRPQFLIENPKTSLEDATLQIEELWKTLSEEEKLKYEEKATKDLERYNSQNKR [M64N] here?
Answer: -0.144 ± 0.13

Question: Which abundance fitness does the source give for KKPMSASALFVQDHRPQFLIENPKTSLEDATLQIEELWKTSSEEEKLKYEEKATKDLERYNSQMKR [L41S] here?
Answer: -0.069 ± 0.058

Question: Which abundance fitness does the source give for KKPMSASALFVQDHRPQFLIENPKTSLEDATLQIEELWKTNSEEEKLKYEEKATKDLERYNSQMKR [L41N] here?
Answer: -0.501 ± 0.12

Question: For KKPMSASALFVQDHRPQFLIENPKGSLEDATLQIEELWKTLSEEEKLKYEEKATKDLERYNSQMKR [T25G], which abundance fitness is on record?
Answer: -0.387 ± 0.094

Question: For KKPMSASALFVQDHRPQFLIENPKTSLEDATLQIEELWKTLSEEEKHKYEEKATKDLERYNSQMKR [L47H], which abundance fitness is on record?
Answer: 0.032 ± 0.15

Question: Which abundance fitness does the source give for KKPMSASALFVQDHRPQFLIENPKTSLEDATLQIEELWKTLSEEEKLKYEEKATKILERYNSQMKR [D56I] here?
Answer: -0.306 ± 0.23

Question: For KKPMSASALFVQDHRPQFLIENPKTSLEDATLQIEELWKTLSEEEKLKYEEKATKNLERYNSQMKR [D56N], which abundance fitness is on record?
Answer: -0.283 ± 0.11

Question: For KKPMSASALFVQDHRPQFLIENPKTSAEDATLQIEELWKTLSEEEKLKYEEKATKDLERYNSQMKR [L27A], which abundance fitness is on record?
Answer: -0.127 ± 0.18

Question: With KKPMSASALFVQDHRPQFLIENPKTSGEDATLQIEELWKTLSEEEKLKYEEKATKDLERYNSQMKR [L27G] as the variant, how does the abundance fitness read?
Answer: -0.308 ± 0.12

Question: Which abundance fitness does the source give for KKPMSASALFVQDHRPQFLIENPKTSLEDATLQIEELWKTLSEEEKLKYEEKATKDRERYNSQMKR [L57R] here?
Answer: -0.058 ± 0.062

Question: With KKPMSASALFVQDHRPQFLIENPKTSLEDATLQIEELWKTLSEEEKLKYEEKATKDNERYNSQMKR [L57N] as the variant, how does the abundance fitness read?
Answer: -0.224 ± 0.099

Question: For KKPHSASALFVQDHRPQFLIENPKTSLEDATLQIEELWKTLSEEEKLKYEEKATKDLERYNSQMKR [M4H], which abundance fitness is on record?
Answer: -0.044 ± 0.14

Question: Which abundance fitness does the source give for KKPESASALFVQDHRPQFLIENPKTSLEDATLQIEELWKTLSEEEKLKYEEKATKDLERYNSQMKR [M4E] here?
Answer: -0.002 ± 0.11

Question: For KKPMSASALFVQDHRPQFLIENPKTSLEDATLQIEELWKTLSEEEKLKYEEKATKDLERVNSQMKR [Y60V], which abundance fitness is on record?
Answer: -0.083 ± 0.087
